Assay [1] concerns the target CVA10 escape mutant N2142D+N3183Y (coxsackievirus A10 strain Kowalik with VP2 N142D and VP3 N183Y) (coxsackievirus A10 (strain Kowalik)).
The target in assay [2] is CVA10-WT viral particles (coxsackievirus A10 prototype strain Kowalik, mature virion) (coxsackievirus A10 (strain Kowalik)).
For assay [3], the target named is CVA10-N142A viral particles (coxsackievirus A10 strain Kowalik with VP2 N142A) (coxsackievirus A10 (strain Kowalik)).

B1: human KRM1-Fc (ectodomain of human KREMEN1 fused to the Fc portion of human IgG1) (Fc fusion)
chain: APSPGLGPECFTANGADYRGTQNWTALQGGKPCLFWNETFQHPYNTLKYPNGEGGLGEHNYCRNPDGDVSPWCYVAEHEDGVYWKYCEIPACQMPGNLGCYKDHGNPPPLTGTSKTSNKLTIQTCISFCRSQRFKFAGMESGYACFCGNNPDYWKYGEAASTECNSVCFGDHTQPCGGDGRIILFDTLVGACGGNYSAMSSVVYSPDFPDTYATGRVCYWTIRVPGASHIHFSFPLFDIRDSADMVELLDGYTHRVLARFHGRSRPPLSFNVSLDFVILYFFSDRINQAQGFAVLYQAVKEELPQERPAVNQTVAEVITEQANLSVSAARSSKVLYVITTSPSHPPQTVPG
modifications: biotin (EZ-Link Sulfo-NHS-LC-LC-Biotin) in the ELISA
As to B1, the change of the neutralization concentration of KRM1-Fc against the mutant relative to CVA10-WT (standard neutralization assay, RD cells) in assay [1] was more than 128 times. In assay [2], this molecule came in with a neutralization concentration (100% protection from CPE) of KRM1-Fc against CVA10 prototype strain Kowalik in RD cells of 12.5 nM. In addition, in assay [3], the resistance to neutralization by KRM1-Fc relative to rescued CVA10-WT (neutralization assay, RD cells) is 64 fold.
